Measurements published in patent US20150147330A1.

Molecular target: human glypican-3 (GPC3), cell-associated (human) (UniProt P51654)
Assay: flow cytometry on cells expressing native GPC3, MFI titration, Scatchard plot (Prism)

Kd: 0.3 nM
Substance: YP7 (antibody)
